First the molecules themselves.
T1: human IL-10RA-Fc fusion (human, UniProt Q13651 22-235)
T1 sequence: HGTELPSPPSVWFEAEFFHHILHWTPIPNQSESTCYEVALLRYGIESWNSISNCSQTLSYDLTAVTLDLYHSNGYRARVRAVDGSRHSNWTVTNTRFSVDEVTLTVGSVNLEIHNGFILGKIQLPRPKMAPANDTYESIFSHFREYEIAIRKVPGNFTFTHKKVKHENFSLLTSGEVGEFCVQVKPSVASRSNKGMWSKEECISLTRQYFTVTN

B1: 411-J-A1G (ssRNA)
RNA: GGGAGAGAGGAAGAGGGAUGGGGGCCAUGACGAUGUCGUUACGUAGAUGCAGAGACUCCUAACGACGACUCGCUGAGAUCGAGA
B2: 411-J-G30T (ssRNA)
RNA: B1 RNA with G23A, G52U
B3: 411-J-G7T (ssRNA)
RNA: B1 RNA with G23A, G29U
B4: 411-J-C28T (ssRNA)
RNA: B1 RNA with G23A, C50U

Residue numbers refer to the chain shown, from its start. Names may count otherwise. Where only a bound is given, the exact number is not on record here.

In the first data set the target is T1, human IL-10RA-Fc fusion. As to the kind of experiment: filter binding; Double filter binding, 37 C, binding buffer not detailed; selection buffer 20 mM HEPES, 2 mM CaCl2, 0.1 mg/ml BSA, 100-150 mM NaCl, pH 7.5. Conditions: protein: commercial; tags: Fc fusion; chain copies: 2; label: 5' 32P.
The molecule B1 showed an equilibrium dissociation constant (Kd) of 9 nM. The same measure, in the same setting: with B2 the figure was 18 nM. The same measure, in the same setting: as for B3, the figure is 18 nM; as for B4, 18 nM.

The subject of the next data set is human IgG (human). The data set can be described thus: filter binding. The settings on record: Double filter binding, 37 C, binding buffer not detailed; selection buffer 20 mM HEPES, 2 mM CaCl2, 0.1 mg/ml BSA, 100-150 mM NaCl, pH 7.5.
“GGGAGAGAGGAAGAGGGAUGGGAAAGACCGUUUUUUAAAACGCUCAAUAUACACGACAUAAACGACGACUCGCUGAGAUCGAGA [446 (#3)]”: the Kd was more than 500 nM. On the same count and under the same terms, with “GGGAGAGAGGAAGAGGGAUGGGAGCCAUGACGAUGUCGUUACGUAGAUGCAGAGACUCCUAACGACGACUCGCUGAGAUCGAGA [411-J]” the figure was more than 500 nM; with “GGGAGAGAGGAAGAGGGAUGGGCGUCUCGUCAAUGCCCUACGUUUGUCUGUGCGACGACUCGCUGAGAUCGAGA [RJB#13]”, more than 1000 nM; with “GGGAGAGAGGAAGAGGGAUGGGUGCUCAAUUAAGAACCAUCGCUCUCCGGUGCGACGACUCGCUGAGAUCGAGA [RJB#25]”, more than 1000 nM. The same measure, in the same setting: with “GGGAGAGAGGAAGAGGGAUGGGUGCUCACAAACGUGAACCAUCGUCUUGUGCCGACGACUCGCUGAGAUCGAGA [RJB#23]” the figure was more than 1000 nM.

Take “GGGAGAGAGGAAGAGGGAUGGGUGCUCACAUACGUGAACCAUCGUCAAUGGCCGACGACUCGCUGAGAUCGAGA [RJB#10]”: the Kd is more than 1000 nM.

As to “GGGAGAGAGGAAGAGGGAUGGGUGCUCAUCUUGAACGCAUUGUUUCUCCGUGCGACGACUCGCUGAGAUCGAGA [RJB#31]”, the Kd was more than 500 nM.

In turn, “GGGAGAGAGGAAGAGGGAUGGGUGCUCCUACUGUGGAACCAUCGUUCUUGUGCGACGACUCGCUGAGAUCGAGA [RJB#17]” showed a Kd of more than 1000 nM.

Take “GGGAGAGAGGAAGAGGGAUGGGUGCUCGUUUCGAACCAUCGUAACUCCUGUGCGACGACUCGCUGAGAUCGAGA [RJB#161]”: the Kd was more than 1000 nM.

“GGGAGAGAGGAAGAGGGAUGGGUGCUUCAUAGAAACGCGCGAUCUUCCUGUGCGACGACUCGCUGAGAUCGAGA [RJB#44]” yielded a Kd of more than 1000 nM.

Staying with this data set, now noted: column inferred from text; Double filter binding, 37 C, binding buffer not detailed; selection buffer 20 mM HEPES, 2 mM CaCl2, 0.1 mg/ml BSA, 100-150 mM NaCl, pH 7.5.
“GGGAGAGAGGAAGAGGGAUGGGAAUCGCUCAGCCGGUCCGGAACUGGCAAAGUCAGGUGCUCCGACGACUCGCUGAGAUCGAGA [405 (cluster E)]” had a dissociation constant (Kd) of 120 nM.

One may read the Kd as the constant that tells how readily two partners part at equilibrium. The low end stands for higher affinity, the high end for lower affinity.

(Values after PMC4499151, “Identifying high-affinity aptamer ligands with defined cross-reactivity using high-throughput guided systematic evolution of ligands by exponential enrichment”.)
